Measured values published in patent publication US20090011979A1 (published 2009).

Experiments:
[1] = biological target: T1, mouse IL-18 (mouse, UniProt P70380 36-192); assay: SPR
T1 chain: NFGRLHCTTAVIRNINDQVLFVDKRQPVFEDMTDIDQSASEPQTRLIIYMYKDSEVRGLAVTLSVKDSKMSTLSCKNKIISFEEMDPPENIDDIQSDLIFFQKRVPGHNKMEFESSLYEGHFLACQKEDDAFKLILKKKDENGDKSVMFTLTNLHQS

[2] = biological target: human IL-18 (human, UniProt Q14116 37-193); assay: SPR
human IL-18, sequence (Q14116 37-193): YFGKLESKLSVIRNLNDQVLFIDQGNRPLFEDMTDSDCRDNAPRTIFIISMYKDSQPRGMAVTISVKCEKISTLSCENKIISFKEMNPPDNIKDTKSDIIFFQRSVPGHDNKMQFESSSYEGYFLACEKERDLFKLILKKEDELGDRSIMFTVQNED

B1: untagged YCI (YMTV IL-18 bp, YMTV Cytokine Inhibitor, without tag) (other)
chain: EKECDKHRSVNIQVPMKETSEVLLRCTGSSYFKHFSYVYWLVGESETVDQLQQNSGYGETSHPSKPHECGNLPSADLVLTNMTEKMRDTKLTCVLMDPDGHIDESLVLREVWDCFNKT
[1]
  Kd: 7.6 nM
[2]
  Kd: 8.13 nM
